Km, kcat and kcat/Km data for 1 substance are collected here from patent US20030113711A1, “Protein kinase peptide substrate determination using peptide libraries” (priority 2001, published 2003).

Data set [1] concerns CC[C@H](C)[C@H](NC(=O)[C@H](CC(=O)O)NC(=O)[C@H](CCC(=O)O)NC(=O)[C@H](CCSC)NC(=O)CNC(=O)CNC(=O)CCCCCNC(=O)CCCC[C@@H]1SC[C@@H]2NC(=O)N[C@@H]21)C(=O)N[C@@H](Cc1ccc(O)cc1)C(=O)N[C@@H](Cc1ccccc1)C(=O)N[C@@H](CCC(=O)O)C(=O)N[C@@H](Cc1ccccc1)C(=O)N[C@@H](CCSC)C(=O)NCC(=O)NCC(=O)N[C@@H](CCCCN)C(=O)N[C@@H](CCCCN)C(=O)N[C@@H](CCCCN)C(N)=O. The data set can be described thus: Two-substrate kinetic comparison with known substrate, peptide and ATP varied simultaneously. The class given is biochemical. Particulars: other: ErbB-2; peptide and ATP concentrations varied simultaneously, two-substrate fit. The method, then: (§1) In a separate experiment, the kinetic parameters of both peptide number 1 shown in Table 2, and a peptide with the sequence Biotin-Ahx-G-G-M-E-D-I-Y-F-E-F-M-G-G-K-K-K-amide (SEQ ID NO: 17), which has been previously identified as an ErbB-2 substrate (Jan et. al., (2000), Biochemistry 39: 9786-803), were determined and compared. In this experiment, both peptide and ATP concentrations were varied, and the resulting data was simultaneously fit to an equation representing a two-substrate enzyme reaction using SIGMAPLOT®. Data was collected using the kinases ErbB-2, ErbB-4, and EGFR. The results of this experiment are shown in Table 3 and indicate that for all three kinases tested, peptide number 1 shown in Table 2 is kinetically at least equivalent (based on kcat/Km values) to the known peptide substrate identified by Jan et al.

In data set [2] the test system is CC[C@H](C)[C@H](NC(=O)[C@H](CCC(=O)O)NC(=O)[C@H](CCC(=O)O)NC(=O)[C@H](Cc1c[nH]cn1)NC(=O)[C@H](C)NC(=O)[C@H](CCCNC(=N)N)NC(=O)CCCCCNC(=O)CCCC[C@@H]1SC[C@@H]2NC(=O)N[C@@H]21)C(=O)N[C@@H](Cc1ccc(O)cc1)C(=O)N[C@@H](Cc1c[nH]cn1)C(=O)N[C@@H](Cc1ccccc1)C(=O)N[C@@H](Cc1ccccc1)C(=O)N[C@@H](Cc1ccccc1)C(=O)N[C@@H](C)C(=O)N[C@@H](CCCCN)C(=O)N[C@@H](CCCCN)C(=O)N[C@@H](CCCCN)C(N)=O. The data set is described as above. The class given is biochemical. Particulars: other: ErbB-2; peptide and ATP concentrations varied simultaneously, two-substrate fit. How it is done: as §1

As usually defined, the Km is the substrate concentration at which the rate is half of its maximum. As usually defined, the kcat is the maximal rate divided by the concentration of active sites. In general, kcat/Km refers to the turnover number divided by the Michaelis constant. On to ErbB-2 (Homo sapiens), for which, in data set [1], the Km came to 157 µM, the kcat worked out at 0.0367 s⁻¹ and the kcat/Km came out at 233 M⁻¹ s⁻¹. In data set [2], the Km worked out at 58 µM, the kcat turned out to be 0.0233 s⁻¹ and the kcat/Km came out at 417 M⁻¹ s⁻¹.
